Measurements as given in PMC10397247.

Tests used:
[1] = target: T1, APC8910-AA; experiment: two-hybrid library CCmax;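 further: natural log of median RNA to DNA barcode read ratio; higher means stronger binding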
T1 chain: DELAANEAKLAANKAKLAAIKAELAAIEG

[2] = target: T2, APC9096-AA; experiment: two-hybrid library CCmax; conditions: mean of both orientations;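 further: natural log of median RNA to DNA barcode read ratio; higher means stronger binding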
T2 chain: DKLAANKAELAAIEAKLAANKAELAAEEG

[3] = target: T3, APC8191-AA; experiment: two-hybrid library CCmax;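 further: natural log of median RNA to DNA barcode read ratio; higher means stronger binding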
T3 chain: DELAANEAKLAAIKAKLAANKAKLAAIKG

[4] = target: T4, APC9319-AA; experiment: two-hybrid library CCmax; conditions: mean of both orientations;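 further: natural log of median RNA to DNA barcode read ratio; higher means stronger binding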
T4 chain: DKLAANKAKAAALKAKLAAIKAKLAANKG

[5] = target: T5, 4H855-bA; experiment: two-hybrid library CCNG1
T5 chain: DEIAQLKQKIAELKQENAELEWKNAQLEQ

[6] = target: T6, 4H908-bA; experiment: two-hybrid library CCNG1
T6 chain: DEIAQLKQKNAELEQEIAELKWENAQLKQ

[7] = target: T7, 4H968-bA; experiment: two-hybrid library CCNG1
T7 chain: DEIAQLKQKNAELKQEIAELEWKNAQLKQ

[8] = target: T8, 4H953-bA; experiment: two-hybrid library CCNG1
T8 chain: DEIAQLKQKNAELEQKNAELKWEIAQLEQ

[9] = target: T9, 4H967-bA; experiment: two-hybrid library CCNG1
T9 chain: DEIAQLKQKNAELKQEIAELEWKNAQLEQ

[10] = target: T10, 4H797-bA; experiment: two-hybrid library CCNG1
T10 chain: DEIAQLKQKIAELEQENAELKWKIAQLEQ

[11] = target: T11, 4H883-bA; experiment: two-hybrid library CCNG1
T11 chain: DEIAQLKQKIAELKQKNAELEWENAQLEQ

[12] = target: T12, 4H918-bA; experiment: two-hybrid library CCNG1
T12 chain: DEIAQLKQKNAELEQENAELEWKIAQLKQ

[13] = target: T13, 4H3777-AA; experiment: two-hybrid library CCmax; conditions: mean of both orientations
T13 chain: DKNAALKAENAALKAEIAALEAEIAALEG

[14] = target: T14, 4H3619-AA; experiment: two-hybrid library CCmax; conditions: mean of both orientations
T14 chain: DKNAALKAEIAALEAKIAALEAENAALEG

[15] = target: T15, 4H3629-AA; experiment: two-hybrid library CCmax; conditions: mean of both orientations
T15 chain: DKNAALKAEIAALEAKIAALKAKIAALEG

[16] = target: T16, 4H3449-AA; experiment: two-hybrid library CCmax
T16 chain: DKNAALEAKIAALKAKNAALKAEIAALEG

[17] = target: T17, 4H432-AA; experiment: two-hybrid library CCmax; conditions: mean of both orientations
T17 chain: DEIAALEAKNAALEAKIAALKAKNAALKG

[18] = target: T18, 4H380-AA; experiment: two-hybrid library CCmax; conditions: mean of both orientations
T18 chain: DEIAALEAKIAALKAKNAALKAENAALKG

[19] = target: T19, 4H3915-AA; experiment: two-hybrid library CCmax; conditions: mean of both orientations
T19 chain: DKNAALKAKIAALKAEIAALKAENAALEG

[20] = target: T20, 4H3974-AA; experiment: two-hybrid library CCmax; conditions: mean of both orientations
T20 chain: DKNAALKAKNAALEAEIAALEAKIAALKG

[21] = target: T21, 4H446-AA; experiment: two-hybrid library CCmax; conditions: mean of both orientations
T21 chain: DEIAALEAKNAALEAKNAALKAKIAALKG

[22] = target: T22, 4H63-AA; experiment: two-hybrid library CCmax
T22 chain: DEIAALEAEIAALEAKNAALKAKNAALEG

[23] = target: T23, 4H87-AA; experiment: two-hybrid library CCmax; conditions: mean of both orientations
T23 chain: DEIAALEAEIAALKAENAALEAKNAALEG

[24] = target: T24, 4H816-AA; experiment: two-hybrid library CCmax
T24 chain: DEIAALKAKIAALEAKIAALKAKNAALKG

B1: APC8191-AA (peptide)
chain: DELAANEAKLAAIKAKLAANKAKLAAIKG
interaction score [1]: -1.9
interaction score [2]: -1.76
interaction score [3]: -1.48
interaction score [4]: -1.88

B2: 4H797-bA (peptide)
chain: DEIAQLKQKIAELEQENAELKWKIAQLEQ
interaction score [5]: 0.572
interaction score [6]: -0.499
interaction score [7]: -1.67
interaction score [8]: -0.848
interaction score [9]: -0.372
interaction score [10]: 0.406
interaction score [11]: -0.129
interaction score [12]: 0.787

B3: 4H3449-AA (peptide)
chain: DKNAALEAKIAALKAKNAALKAEIAALEG
interaction score [13]: -2.46
interaction score [14]: -1.01
interaction score [15]: -1.65
interaction score [16]: -2.07
interaction score [17]: 0.499
interaction score [18]: -1.96
interaction score [19]: -1.74
interaction score [20]: -0.638
interaction score [21]: -1.41
interaction score [22]: -1.51

B4: 4H816-AA (peptide)
chain: DEIAALKAKIAALEAKIAALKAKNAALKG
interaction score [23]: 0.567
interaction score [24]: 1.02
